Our source for the stoichiometry N values is doi:10.1101/2025.11.17.688803.

This test concerns the target endogenous LRBA of mouse embryonic fibroblasts (mouse (endogenous in MEFs)) (UniProt Q9ESE1). The test can be described thus: SEC.

Broadly, the stoichiometry N is a count of units in the complex or per binding partner. “endogenous LRBA of mouse embryonic fibroblasts (from UniProt Q9ESE1 1-2856) (natural protein)” came in with a stoichiometry N of 2.
